Measured values: the Human Domainome abundance scans (Beltran et al. 2025)
± gives the uncertainty stated by the source.

B1: Transcription elongation factor A N-terminal and central domain-containing protein, residues 30 to 77; numbered along this chain, Q8N8B7 (parent)
chain: LTELETIYVTKEHLQETDVVRAVYRVLKNCPSVALKKKAKCLLSKWKA

Variants of: B1
Assay: abundance fitness (aPCA) (normalised: wild type 0, dead -1); higher = more abundant; growth selection in yeast, the domain comes from the species named
Details: Homo sapiens

Variant	abundance fitness
LTELETIYVTKEHLQETDVVRAVYRVLKNYPSVALKKKAKCLLSKWKA [C30Y]	-0.632 ± 0.1
LTELETIYVTKEHLQETDVVRAVYRVLKNPPSVALKKKAKCLLSKWKA [C30P]	-0.244 ± 0.14
LTELETIYVTKEHLQETDVVRAVYRVLKNEPSVALKKKAKCLLSKWKA [C30E]	-0.935 ± 0.17
LTELETIYVTKEHLQETDVVRAVYRVLKNHPSVALKKKAKCLLSKWKA [C30H]	-0.743 ± 0.24
LTELETIYVTKEHLQETDVVRAVYRVLKNSPSVALKKKAKCLLSKWKA [C30S]	-0.514 ± 0.087
LTELETIYVTKEHLQETDVVRAVYRVLKNMPSVALKKKAKCLLSKWKA [C30M]	0.035 ± 0.12
LTELETIYVTKEHLQETDVVRAVYRVLKNDPSVALKKKAKCLLSKWKA [C30D]	-0.442 ± 0.16
LTELETIYVTKEHLQETDVVRAVYSVLKNCPSVALKKKAKCLLSKWKA [R25S]	-0.257 ± 0.086
LTELETIYVTKEHLQETDVVRAVYVVLKNCPSVALKKKAKCLLSKWKA [R25V]	-0.849 ± 0.13
LTELETIYVTKEHLQETDVVRAVYWVLKNCPSVALKKKAKCLLSKWKA [R25W]	-0.837 ± 0.19
LTELETIYVTKEHLQETDVVRAVYYVLKNCPSVALKKKAKCLLSKWKA [R25Y]	-0.805 ± 0.44
LTELETIYVTKEHLQETDVVRAVYFVLKNCPSVALKKKAKCLLSKWKA [R25F]	-0.811 ± 0.23
LTELETIYVTKEHLQETDVVRAVYPVLKNCPSVALKKKAKCLLSKWKA [R25P]	-0.812 ± 0.18
LTELETIYVTKEHLQETDVVRAVYTVLKNCPSVALKKKAKCLLSKWKA [R25T]	-0.528 ± 0.13
LTELETIYVTKEHLQETDVVRAVYNVLKNCPSVALKKKAKCLLSKWKA [R25N]	-0.091 ± 0.13
LTELETIYVTKEHLQETDVVRAVYGVLKNCPSVALKKKAKCLLSKWKA [R25G]	-0.136 ± 0.08
LTELETIYVTKEHLQETDVVRAVYKVLKNCPSVALKKKAKCLLSKWKA [R25K]	-0.364 ± 0.11
LTELETIYVTKEHLQETDVVRAVYQVLKNCPSVALKKKAKCLLSKWKA [R25Q]	-0.038 ± 0.27
LTELETIYVTKEHLQETDVVRAVYLVLKNCPSVALKKKAKCLLSKWKA [R25L]	-0.71 ± 0.096
LTELETIYVTKEHLQETDVVRAVYRLLKNCPSVALKKKAKCLLSKWKA [V26L]	-0.172 ± 0.088
LTELETIYVTKEHLQETDVVRAVYRDLKNCPSVALKKKAKCLLSKWKA [V26D]	-0.727 ± 0.21
LTELETIYVTKEHLQETDVVRAVYRRLKNCPSVALKKKAKCLLSKWKA [V26R]	0.211 ± 0.079
LTELETIYVTKEHLQETDVVRAVYRFLKNCPSVALKKKAKCLLSKWKA [V26F]	0.126 ± 0.11
LTELETIYVTKEHLQETDVVRAVYRILKNCPSVALKKKAKCLLSKWKA [V26I]	-0.105 ± 0.12
LTELETIYVTKEHLQETDVVRAVYRQLKNCPSVALKKKAKCLLSKWKA [V26Q]	-0.183 ± 0.27
LTELETIYVTKEHLQETDVVRAVYRELKNCPSVALKKKAKCLLSKWKA [V26E]	-0.836 ± 0.18
LTELETIYVTKEHLQETDVVRAVYRYLKNCPSVALKKKAKCLLSKWKA [V26Y]	0.491 ± 0.17

Variant	abundance fitness
LTELETIYVTKEHLQETDVVRAVYRSLKNCPSVALKKKAKCLLSKWKA [V26S]	-0.206 ± 0.089
LTELETIYVTKEHLQETDVVRAVYRPLKNCPSVALKKKAKCLLSKWKA [V26P]	-0.131 ± 0.14
LTELETIYVTKEHLQETDVVRAVYRCLKNCPSVALKKKAKCLLSKWKA [V26C]	0.15 ± 0.12
LTELETIYVTKEHLQETDVVRAVYRMLKNCPSVALKKKAKCLLSKWKA [V26M]	0.206 ± 0.11
LTELETIYVTKEHLQETDVVRAVYRNLKNCPSVALKKKAKCLLSKWKA [V26N]	-0.152 ± 0.12
LTELETIYVTKEHLQETDVVRAVYRALKNCPSVALKKKAKCLLSKWKA [V26A]	0.154 ± 0.076
LTELETIYVTKEHLQETDVVRAVYRWLKNCPSVALKKKAKCLLSKWKA [V26W]	0.447 ± 0.11
LTELETIYVTKEHLQETDVVRAVYRTLKNCPSVALKKKAKCLLSKWKA [V26T]	0.279 ± 0.12
LTELETIYVTKEHLQETDVVRAVYRKLKNCPSVALKKKAKCLLSKWKA [V26K]	-0.149 ± 0.22
LTELETIYVTKEHLQETDVVRAVYRGLKNCPSVALKKKAKCLLSKWKA [V26G]	-0.095 ± 0.078
LTELETIYVTKEHLQETDVVRAVYRVLKICPSVALKKKAKCLLSKWKA [N29I]	-0.167 ± 0.13
LTELETIYVTKEHLQETDVVRAVYRVLKRCPSVALKKKAKCLLSKWKA [N29R]	0.144 ± 0.081
LTELETIYVTKEHLQETDVVRAVYRVLKGCPSVALKKKAKCLLSKWKA [N29G]	-0.282 ± 0.074
LTELETIYVTKEHLQETDVVRAVYRVLKFCPSVALKKKAKCLLSKWKA [N29F]	-0.09 ± 0.15
LTELETIYVTKEHLQETDVVRAVYRVLKCCPSVALKKKAKCLLSKWKA [N29C]	0 ± 0.11
LTELETIYVTKEHLQETDVVRAVYRVLKPCPSVALKKKAKCLLSKWKA [N29P]	-0.904 ± 0.17
LTELETIYVTKEHLQETDVVRAVYRVLKDCPSVALKKKAKCLLSKWKA [N29D]	-0.193 ± 0.17
LTELETIYVTKEHLQETDVVRAVYRVLKVCPSVALKKKAKCLLSKWKA [N29V]	-0.186 ± 0.075
LTELETIYVTKEHLQETDVVRAVYRVLKKCPSVALKKKAKCLLSKWKA [N29K]	-0.029 ± 0.11
LTELETIYVTKEHLQETDVVRAVYRVLKQCPSVALKKKAKCLLSKWKA [N29Q]	-0.259 ± 0.15
LTELETIYVTKEHLQETDVVRAVYRVLKMCPSVALKKKAKCLLSKWKA [N29M]	0.052 ± 0.1
LTELETIYVTKEHLQETDVVRAVYRVLKYCPSVALKKKAKCLLSKWKA [N29Y]	-0.466 ± 0.14
LTELETIYVTKEHLQETDVVRAVYRVLKECPSVALKKKAKCLLSKWKA [N29E]	-0.536 ± 0.12
LTELETIYVTKEHLQETDVVRAVYRVLKSCPSVALKKKAKCLLSKWKA [N29S]	-0.144 ± 0.076
LTELETIYVTKEHLQETDVVRAVYRVLKACPSVALKKKAKCLLSKWKA [N29A]	-0.086 ± 0.08
LTELETIYVTKEHLQETDVVRAVYRVLKLCPSVALKKKAKCLLSKWKA [N29L]	0.004 ± 0.076
LTELETIYVTKEHLQETDVVRAVYRVLKTCPSVALKKKAKCLLSKWKA [N29T]	0.024 ± 0.11
